Sequences and labels used below:
B1: GFOD1 (parent)
chain: EEAEELAKEMSVPFYTSRIDEVLL
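Also: lentivirally expressed fusions sorted by FACS into six bins by GFP to DsRed ratio, PSI derived from sequencing read proportions per bin multiplied by bin number.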

In the series the parent is B1. The series can be described thus: protein stability index of a GFP-peptide fusion (GPS, HEK-293T) (PSI 1-6); higher = more stable. As to conditions: c terminus: a fixed tail appended.
With EEAEELDKEMSVPFYTSRIDEVLL, the protein stability index stood at 4.62.

Consider EEAEELTKEMSVPFYTSRIDEVLL, for which the protein stability index is 3.79.

EEAEELIKEMSVPFYTSRIDEVLL: the protein stability index was found to be 2.77.

For EEAEELKKEMSVPFYTSRIDEVLL, the protein stability index is 3.32.

For EEAEELPKEMSVPFYTSRIDEVLL, the protein stability index was 4.5.

For the variant EEAEELSKEMSVPFYTSRIDEVLL, the protein stability index amounted to 3.6.

On to EEAEELYKEMSVPFYTSRIDEVLL, for which the protein stability index is 3.07.

As to EEAEELAKEMFVPFYTSRIDEVLL, the protein stability index is 2.72.

In the case of EEAEELAKEMKVPFYTSRIDEVLL, the protein stability index came to 3.17.

With EEAEELAKEMWVPFYTSRIDEVLL, the protein stability index amounted to 2.76.

For EEAEELAKEMHVPFYTSRIDEVLL, the protein stability index was 4.04.

For EEAEELAKEMYVPFYTSRIDEVLL, the protein stability index was found to be 2.86.

With EEAEELAKEMCVPFYTSRIDEVLL, the protein stability index is 3.36.

Regarding EEAEELAKEMNVPFYTSRIDEVLL, the protein stability index was determined as 2.23.

On to EEAEELAKEMAVPFYTSRIDEVLL, for which the protein stability index was 3.51.

On to EEAEELAKEMEVPFYTSRIDEVLL, for which the protein stability index worked out at 4.74.

With EEAEELAKEMQVPFYTSRIDEVLL, the protein stability index is 4.04.

For the variant EEAEELAKEMIVPFYTSRIDEVLL, the protein stability index was 3.29.

In the case of EEAEELAKEMMVPFYTSRIDEVLL, the protein stability index amounted to 3.67.

For EEAEELAKEMPVPFYTSRIDEVLL, the protein stability index came to 3.87.

With EEAEELAKEMDVPFYTSRIDEVLL, the protein stability index turned out to be 4.5.

In the case of EEAEELAKEMGVPFYTSRIDEVLL, the protein stability index came to 2.97.

As to EEAEELAKEMLVPFYTSRIDEVLL, the protein stability index came to 4.46.

For the variant EEAEELAKEMTVPFYTSRIDEVLL, the protein stability index was 4.12.

Regarding EEAEELAKEMRVPFYTSRIDEVLL, the protein stability index was found to be 3.02.

Take EEAEELAKEMSVPFETSRIDEVLL: the protein stability index amounted to 4.99.

Regarding EEAEELAKEMSVPFKTSRIDEVLL, the protein stability index was found to be 4.41.

For the variant EEAEELAKEMSVPFPTSRIDEVLL, the protein stability index amounted to 5.

As to EEAEELAKEMSVPFGTSRIDEVLL, the protein stability index was found to be 4.97.

For EEAEELAKEMSVPFITSRIDEVLL, the protein stability index came out at 3.62.

Take EEAEELAKEMSVPFATSRIDEVLL: the protein stability index was determined as 4.47.

Take EEAEELAKEMSVPFNTSRIDEVLL: the protein stability index was found to be 4.83.

Regarding EEAEELAKEMSVPFRTSRIDEVLL, the protein stability index was 4.2.

With EEAEELAKEMSVPFQTSRIDEVLL, the protein stability index amounted to 4.42.

Take EEAEELAKEMSVPFLTSRIDEVLL: the protein stability index came out at 3.67.

EEAEELAKEMSVPFMTSRIDEVLL: the protein stability index amounted to 4.14.

EEAEELAKEMSVPFSTSRIDEVLL: the protein stability index stood at 5.01.

Take EEAEELAKEMSVPFHTSRIDEVLL: the protein stability index is 4.77.

Consider EEAEELAKEMSVPFWTSRIDEVLL, for which the protein stability index stood at 3.1.

For the variant EEAEELAKEMSVPFCTSRIDEVLL, the protein stability index was 3.97.

As for EEAEELAKEMSVPFTTSRIDEVLL, the protein stability index came out at 4.91.

On to EEAEELAKEMSVPFFTSRIDEVLL, for which the protein stability index was 3.61.

EEAEELAKEMSGPFYTSRIDEVLL: the protein stability index was 4.26.

As for EEAEELAKEMSLPFYTSRIDEVLL, the protein stability index was found to be 3.67.

On to EEAEELAKEMSTPFYTSRIDEVLL, for which the protein stability index amounted to 4.2.

For EEAEELAKEMSMPFYTSRIDEVLL, the protein stability index was determined as 4.31.

Consider EEAEELAKEMSAPFYTSRIDEVLL, for which the protein stability index came out at 3.2.

EEAEELAKEMSSPFYTSRIDEVLL: the protein stability index was 4.46.

Consider EEAEELAKEMSHPFYTSRIDEVLL, for which the protein stability index came to 3.03.

In the case of EEAEELAKEMSFPFYTSRIDEVLL, the protein stability index was 2.91.

In the case of EEAEELAKEMSKPFYTSRIDEVLL, the protein stability index was 3.99.

As to EEAEELAKEMSNPFYTSRIDEVLL, the protein stability index amounted to 4.56.

Regarding EEAEELAKEMSRPFYTSRIDEVLL, the protein stability index was 3.89.

In the case of EEAEELAKEMSCPFYTSRIDEVLL, the protein stability index was determined as 3.71.

As to EEAEELAKEMSYPFYTSRIDEVLL, the protein stability index is 4.22.

Regarding EEAEELAKEMSQPFYTSRIDEVLL, the protein stability index was found to be 3.91.

With EEAEELAKEMSPPFYTSRIDEVLL, the protein stability index is 4.14.

For EEAEELAKEMSIPFYTSRIDEVLL, the protein stability index was 3.6.

Regarding EEAEELAKEMSDPFYTSRIDEVLL, the protein stability index was 3.47.

On to EEAEELAKEMSEPFYTSRIDEVLL, for which the protein stability index worked out at 4.38.

Turning to EEAEELATEMSVPFYTSRIDEVLL, the protein stability index was 3.89.

EEAEELACEMSVPFYTSRIDEVLL: the protein stability index was determined as 2.9.

With EEAEELAPEMSVPFYTSRIDEVLL, the protein stability index is 3.59.

With EEAEELAFEMSVPFYTSRIDEVLL, the protein stability index is 2.25.

Consider EEAEELALEMSVPFYTSRIDEVLL, for which the protein stability index is 2.46.

EEAEELASEMSVPFYTSRIDEVLL: the protein stability index was 2.89.

As to EEAEELAREMSVPFYTSRIDEVLL, the protein stability index came to 4.04.

As to EEAEELAGEMSVPFYTSRIDEVLL, the protein stability index turned out to be 4.1.

For the variant EEAEELADEMSVPFYTSRIDEVLL, the protein stability index came to 3.94.

EEAEELANEMSVPFYTSRIDEVLL: the protein stability index worked out at 3.39.

Regarding EEAEELAEEMSVPFYTSRIDEVLL, the protein stability index turned out to be 4.17.

As to EEAEELAIEMSVPFYTSRIDEVLL, the protein stability index stood at 2.76.

Consider EEAEELAYEMSVPFYTSRIDEVLL, for which the protein stability index was found to be 2.86.

In the case of EEAEELAAEMSVPFYTSRIDEVLL, the protein stability index stood at 3.66.

For the variant EEAEELAMEMSVPFYTSRIDEVLL, the protein stability index turned out to be 3.29.

As to EEAEELAHEMSVPFYTSRIDEVLL, the protein stability index was 3.66.

For the variant EEAEELAVEMSVPFYTSRIDEVLL, the protein stability index is 2.85.

As to EEAEELAKEHSVPFYTSRIDEVLL, the protein stability index turned out to be 4.53.

As to EEAEELAKEYSVPFYTSRIDEVLL, the protein stability index is 3.63.

As to EEAEELAKETSVPFYTSRIDEVLL, the protein stability index is 4.03.

Turning to EEAEELAKERSVPFYTSRIDEVLL, the protein stability index was 3.81.

Consider EEAEELAKEVSVPFYTSRIDEVLL, for which the protein stability index turned out to be 3.84.

As for EEAEELAKEISVPFYTSRIDEVLL, the protein stability index was 3.57.

On to EEAEELAKEPSVPFYTSRIDEVLL, for which the protein stability index was determined as 4.5.

For the variant EEAEELAKEGSVPFYTSRIDEVLL, the protein stability index is 4.22.

With EEAEELAKECSVPFYTSRIDEVLL, the protein stability index is 4.53.

Consider EEAEELAKEDSVPFYTSRIDEVLL, for which the protein stability index came to 4.7.

For EEAEELAKEKSVPFYTSRIDEVLL, the protein stability index came to 4.03.

For the variant EEAEELAKELSVPFYTSRIDEVLL, the protein stability index worked out at 2.62.

Regarding EEAEELAKEWSVPFYTSRIDEVLL, the protein stability index was 4.5.

Consider EEAEELAKEQSVPFYTSRIDEVLL, for which the protein stability index was determined as 4.26.

As to EEAEELAKESSVPFYTSRIDEVLL, the protein stability index was 4.12.

EEAEELAKEFSVPFYTSRIDEVLL: the protein stability index came to 3.62.

In the case of EEAEELAKEASVPFYTSRIDEVLL, the protein stability index was found to be 4.41.
